According to the supplement of paper PMC7125110:
± gives the standard error. For some assays here: Fewer inactive variants are shown than the library holds.

B1: glmS ribozyme (parent)
chain: AUAAAAGCGCCAGAACUACAGAAAUGUAGUUGACGAGGAGGAGGUUUAUCGAAUUUUCGGCGGAUGCCUCCAAA

What was measured:
Settings in all cases: with glucosamine-6-phosphate
glucosamine-6-phosphate [1] = variants of: B1; test: kcat; higher = faster cleavage; RNA array
Outline: (§1)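 Tiles bearing barcoded ribozyme variants, transcribed in situ by E. coli RNA polymerase on sequenced MiSeq chips, were imaged over ~14 h at 37 °C using a hybridised Cy3 probe. Glucosamine-6-phosphate was supplied at 40 μM to 10 mM in HEPES/KCl/Mg(OAc)2 buffer. kobs came from one- or two-exponential decay fits to normalised per-tile medians, and weighted Michaelis–Menten fits then provided kcat and KM.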

glucosamine-6-phosphate [2] = variants of: B1; test: KM; higher = weaker cofactor use; RNA array
Outline: as §1

glucosamine-6-phosphate [3] = variants of: B1; test: self-cleavage kobs at 40 uM GlcN6P; higher = faster cleavage; RNA array
Outline: as §1

glucosamine-6-phosphate [4] = variants of: B1; test: self-cleavage kobs at 10000 uM GlcN6P; higher = faster cleavage; RNA array
Outline: as §1

glucosamine-6-phosphate [5] = variants of: B1; test: self-cleavage kobs at 640 uM GlcN6P; higher = faster cleavage; RNA array
Outline: as §1

glucosamine-6-phosphate [6] = variants of: B1; test: self-cleavage kobs at 2500 uM GlcN6P; higher = faster cleavage; RNA array
Outline: as §1

glucosamine-6-phosphate [7] = variants of: B1; test: self-cleavage kobs at 160 uM GlcN6P; higher = faster cleavage; RNA array
Outline: as §1

Variant | kcat (glucosamine-6-phosphate [1]) [s⁻¹] | KM (glucosamine-6-phosphate [2]) [mM] | self-cleavage kobs at 40 uM GlcN6P (glucosamine-6-phosphate [3]) [s⁻¹] | self-cleavage kobs at 10000 uM GlcN6P (glucosamine-6-phosphate [4]) [s⁻¹] | self-cleavage kobs at 640 uM GlcN6P (glucosamine-6-phosphate [5]) [s⁻¹] | self-cleavage kobs at 2500 uM GlcN6P (glucosamine-6-phosphate [6]) [s⁻¹] | self-cleavage kobs at 160 uM GlcN6P (glucosamine-6-phosphate [7]) [s⁻¹]
A12C A14U C16U U46G | 3.1e-05 ± 6.8e-06 |  |  |  |  |  | 
A12C G32C | 2.92e-05 ± 1.3e-06 | 3.26 ± 0.5 | < 1e-05 | 2.2e-05 ± 6.6e-06 |  |  | 
A12C G32A | 0.00031 ± 2.5e-05 | 3.11 ± 0.47 |  | 0.000244 ± 3.1e-05 | 5.72e-05 ± 1e-05 | 0.000129 ± 1.8e-05 | 
G13C A42C | < 1e-05 |  | < 1e-05 | < 1e-05 |  |  | 
A12G A42G | 0.00162 ± 0.0003 | 4.88 ± 1.3 |  | 0.00103 ± 0.00012 | 0.000189 ± 1.9e-05 | 0.00064 ± 7.7e-05 | 3.49e-05 ± 1.3e-05
A12G G37A | 0.000113 ± 2.5e-05 | 6.32 ± 2.8 |  | 6.97e-05 ± 1.1e-05 |  | 3.05e-05 ± 8.5e-06 | 
C11U U54C | 0.00157 ± 0.00021 | 0.99 ± 0.21 | 6.42e-05 ± 1.2e-05 | 0.00167 ± 0.00033 | 0.000616 ± 0.00017 | 0.00092 ± 0.00024 | 0.000204 ± 9.2e-05
C11U U54G | 0.00114 ± 0.00053 |  | 5.3e-05 ± 1.1e-05 | 0.00164 ± 0.00025 | 0.000277 ± 3.9e-05 | 0.000642 ± 9.5e-05 | 0.000153 ± 2.1e-05
C11U A39G | 0.00395 ± 0.00067 | 1.78 ± 0.48 | 7.9e-05 ± 1.3e-05 | 0.00358 ± 0.00044 | 0.00116 ± 0.00026 | 0.00192 ± 0.00036 | 0.00047 ± 9.6e-05
A12G A53C | 0.000173 ± 3.8e-05 | 2.22 ± 1.1 |  | 0.000157 ± 1.5e-05 | 5e-05 ± 6.8e-06 | 7.64e-05 ± 8.5e-06 | 
G13A U30A | 0.000292 ± 4.6e-05 | 3.63 ± 0.96 |  | 0.000202 ± 5.4e-05 | 3.94e-05 ± 1.3e-05 | 0.000128 ± 2.3e-05 | < 1e-05
G13A U30C | 0.000676 ± 0.00014 | 2.01 ± 0.83 |  | 0.00051 ± 9.1e-05 | 0.000158 ± 3.2e-05 | 0.000511 ± 9.2e-05 | 
A12G C16G | 0.000144 ± 1.3e-05 | 7.16 ± 1.3 |  | 8.35e-05 ± 1.2e-05 |  | 3.92e-05 ± 1.4e-05 | 
A12G C16A | 3.87e-05 ± 9.1e-07 | 1.33 ± 0.2 | < 1e-05 | 3.41e-05 ± 6.7e-06 |  |  | 
A12U A15U A39C | 0.000282 ± 8.6e-05 |  |  | 0.000374 ± 8.8e-05 | 9.89e-05 ± 1.6e-05 | 0.000199 ± 3.2e-05 | 6.33e-05 ± 1.3e-05
A12U U69A | 0.000227 ± 4.2e-05 |  | 0.000106 ± 1.6e-05 | 0.000303 ± 4.8e-05 | 0.000292 ± 4.6e-05 | 0.000186 ± 2.9e-05 | 0.000124 ± 2.9e-05
A12C A48G | 5.38e-05 ± 6.8e-06 |  |  | 4.66e-05 ± 7.1e-06 |  | 4.26e-05 ± 1.2e-05 | 

Variant | kcat (glucosamine-6-phosphate [1]) [s⁻¹] | KM (glucosamine-6-phosphate [2]) [mM] | self-cleavage kobs at 40 uM GlcN6P (glucosamine-6-phosphate [3]) [s⁻¹] | self-cleavage kobs at 10000 uM GlcN6P (glucosamine-6-phosphate [4]) [s⁻¹] | self-cleavage kobs at 640 uM GlcN6P (glucosamine-6-phosphate [5]) [s⁻¹] | self-cleavage kobs at 2500 uM GlcN6P (glucosamine-6-phosphate [6]) [s⁻¹] | self-cleavage kobs at 160 uM GlcN6P (glucosamine-6-phosphate [7]) [s⁻¹]
A12C A48U | 0.000191 ± 4.1e-06 | 2.89 ± 0.15 |  | 0.000147 ± 1.6e-05 | 3.34e-05 ± 9.3e-06 | 9.1e-05 ± 1.6e-05 | 
A12U G43U | 0.000148 ± 3e-05 |  |  | 0.00012 ± 1.2e-05 | 2.86e-05 ± 1.1e-05 | 0.000134 ± 2.2e-05 | 
A12G A15U | 0.000449 ± 5.3e-05 | 5.85 ± 1.1 |  | 0.000288 ± 2.6e-05 | 4.86e-05 ± 6.8e-06 | 0.000123 ± 1.6e-05 | 
G13A C67A C68U C70G | < 1e-05 |  | < 1e-05 |  |  |  | 
G13A U31C | 0.00123 ± 0.00012 | 4.56 ± 0.74 |  | 0.00084 ± 0.00011 | 0.000169 ± 3.3e-05 | 0.000441 ± 6.9e-05 | 3.44e-05 ± 1.2e-05
G13A U31A | 0.00146 ± 4.2e-05 | 9.8 ± 0.41 |  | 0.00074 ± 0.0001 | 9.06e-05 ± 1.9e-05 | 0.000292 ± 6.9e-05 | 
A12C G66A | 0.00855 ± 0.0022 | 1.58 ± 0.57 | 0.00028 ± 7e-05 | 0.00648 ± 0.0015 | 0.00241 ± 0.00027 | 0.00753 ± 0.0014 | 0.000705 ± 0.00014
C11U A15U | 0.000594 ± 3.8e-05 | 1.54 ± 0.23 |  | 0.000511 ± 4.5e-05 | 0.000178 ± 2.4e-05 | 0.000375 ± 5.4e-05 | 4.54e-05 ± 1.7e-05
C11U A15G | 0.00211 ± 0.00043 | 1.01 ± 0.32 | 0.000103 ± 1.4e-05 | 0.0023 ± 0.00037 | 0.000746 ± 8.9e-05 | 0.00141 ± 0.00022 | 0.000249 ± 4.3e-05
G13A U65A | 0.000116 ± 3.9e-05 |  | < 1e-05 | 5.81e-05 ± 8.7e-06 |  | 2.1e-05 ± 9.1e-06 | 
A12G U31G | 0.000573 ± 0.00012 | 4.66 ± 1.5 |  | 0.000374 ± 3.9e-05 | 6.61e-05 ± 8.2e-06 | 0.000254 ± 3.4e-05 | 
G13A U69A | 4.03e-05 ± 1.6e-05 |  |  |  |  | 6.18e-05 ± 1.2e-05 | 
G13A U69C | 0.000255 ± 8.6e-05 |  |  | 0.000179 ± 4.5e-05 |  | 0.000132 ± 2.8e-05 | 
A12U C61U | 2.71e-05 ± 7.4e-06 |  |  |  |  | 3.1e-05 ± 1.2e-05 | 
G13A C71G | 5.85e-05 ± 4.1e-06 |  |  | 5.48e-05 ± 7e-06 | 5.42e-05 ± 1.3e-05 | 5.71e-05 ± 9.7e-06 | 
A12G C34U C58U C68G | 3.16e-05 ± 4.5e-06 |  |  |  |  |  | 
